Read-outs that look alike come from different tables or passages of the source.
Experiments:
[1] = Membrane off-binding rate (koff) of FtsA from FRAP
Excerpt: We could also use the data from these bleaching experiments to quantify the membrane-binding kinetics and diffusion of membrane-bound proteins by analysing the change of the fluorescence profile during recovery.
Equimolar concentrations of Cy3- and Cy5-labelled FtsA, supplemented with 20% unlabelled FtsA were used to study FRET and FRAP. Five pre-bleach frames were acquired, followed by acceptor photobleaching of a rectangular ROI with 40% 641 nm laser power and a dwell size of 1 µs/pixel, 75% overlapping lines. The recovery of the signal or the increase in donor intensity were measured with either two frames or one frame per second.
Bleaching the acceptor dye leads to an increase in the donor intensity, which can be used to quantify the Foerster Resonance energy transfer (FRET)[48]. FRET efficiency was quantified with E%=Ipost/Ipost+Ipre⋅100 , where Ipost is the intensity of the […] and Ipre is the […]. […] To extract the contribution of both processes, we adjusted a routine recently published by Gerganova et al.[33]. In short, the code provides the contribution of both modes of recovery by analysing the shape of the fluorescence recovery profile. […] Contribution of diffusion leads to a change of the slope of the outer borders of the bleached region (S4h right). Thus, by measuring the change of the slope of the border recovery, diffusion and simple on/off binding can be distinguished. We developed “FRAPdiff”, a graphical user interface, which uses the original fit routine by David Rutkowski. It can be used directly on.tiff movies with annotated bleach regions as ImageJ ROIs. In addition, we added optional bleach correction, user selectable projection axis (x or y), and optional mirroring of the recovery profiles, if bleaching was not symmetric. The original fit routine for estimating the recovery and diffusion dynamics can be found at https://github.com/davidmrutkowski/1DReflectingDiffusion. FRAPdiff is available at 10.5281/zenodo.6400639[49] under the GPLv3 open-source license.

FtsZ [2] = conditions: His-tagged FtsA
Protocol: (§1) Co-treadmilling of FtsA with FtsZ relies on the dynamic exchange of FtsA on the membrane. […] To investigate the respective contributions of membrane binding kinetics and FtsA self-interaction on the colocalization dynamics with FtsZ, we wanted to create variants of the two FtsA proteins that are permanently attached to the membrane. […] Accordingly, in these experiments the proteins only differ in their tendency to form oligomers.
(§2) To study colocalization of His-tagged variants of FtsA, 0.5–1 µM of Cy5 labelled His-tagged FtsAs were added to the chamber, incubated for 20 min and washed 6x with reaction buffer. […] To control the density of membrane-bound FtsA, SUVs without and with Tris-NTA lipids were mixed to obtain the respective Tris-NTA concentrations. To perform FRET/FRAP experiments, equimolar concentrations of Cy3 and Cy5 labelled His-tagged FtsAs (total 0.5–1 µM) or His-SUMO-Cys were added to a chamber and treated as above. […] FRAP experiments were performed as described before.
Time-lapse videos were first intensity-corrected and contrast-enhanced to avoid bleaching effects and simplify subsequent analysis. To remove contributions of X–Y drift, the videos were processed with the Linear Stack Alignment with SIFT plugin. Proper alignment was checked with the 3TP align plugin (J. A. Parker; Beth Israel Deaconess Medical Center, Boston). Subsequently, regions of interest (ROIs) in the center of the stacks were chosen for colocalization analysis. The Pearson’s correlation coefficient (PCC) was quantified with the Image CorrelationJ 1o plugin. To extract information about the relative ratio of FtsZ/FtsA molecules (slope of linear regression), we also used the Image CorrelationJ 1o plugin. As an output, the plugin provides a scatterplot of FtsZ vs FtsA intensities, to which we fitted a linear slope y=k⋅x+d , where k is the slope and d the offset. The slope was used as an estimate for the ratio of FtsA molecules below FtsZ filaments.

FtsZ [3] = conditions: His-tagged FtsA; remark: listed apart in the source
Protocol: as §1, §2
Treadmilling dynamics, were quantified using an automated image analysis protocol previously developed by our group. To visualize colocalization of the co-treadmilling FtsZ & FtsA filaments, we used dual-colour videos obtained at an acquisition rate of one frame per 2 s. The two channels were aligned using FIJI’s 3TP align plugin. Both channels were then subjected to the image subtraction protocol and colocalization was measured as described above.

[4] = 0.60% Tris NTA, Exp. 2 (statistical analysis)
[5] = 0.80% Tris NTA, Exp. 1 (statistical analysis)
[6] = 0.80% Tris NTA, Exp. 2 (statistical analysis)
[7] = 0.80% Tris NTA, Exp. 3 (statistical analysis)
[8] = 1.00% Tris NTA, Exp. 1 (statistical analysis)
[9] = 1.00% Tris NTA, Exp. 2 (statistical analysis)
[10] = 1.00% Tris NTA, Exp. 3 (statistical analysis)
[11] = 2.00% Tris NTA, Exp. 1 (statistical analysis)
[12] = 2.00% Tris NTA, Exp. 2 (statistical analysis)
[13] = 2.00% Tris NTA, Exp. 3 (statistical analysis)
[14] = […] Tris NTA, Exp. 1 (statistical analysis)
[15] = […] Tris NTA, Exp. 3 (statistical analysis)

B1: FtsA R286W (protein)
chain: MIKATDRKLVVGLEIGTAKVAALVGEVLPDGMVNIIGVGSCPSRGMDKGGVNDLESVVKCVQRAIDQAELMADCQISSVYLALSGKHISCQNEIGMVPISEEEVTQEDVENVVHTAKSVRVRDEHRVLHVIPQEYAIDYQEGIKNPVGLSGVRMQAKVHLITCHNDMAKNIVKAVERCGLKVDQLIFAGLASSYSVLTEDERELGVCVVDIGGGTMDIAVYTGGALRHTKVIPYAGNVVTSDIAYAFGTPPSDAEAIKVRHGCALGSIVGKDESVEVPSVGGRPPWSLQRQTLAEVIEPRYTELLNLVNEEILQLQEKLRQQGVKHHLAAGIVLTGGAAQIEGLAACAQRVFHTQVRIGAPLNITGLTDYAQEPYYSTAVGLLHYGKESHLNGEAEVEKRVTASVGSWIKRLNSWLRKEF
modifications: Cy3 or Cy5 at the N-terminus in the labelled form (labelled CLEPTGG peptide conjugated to the 5xGly tag by sortagging); unlabelled protein also used; left off: TwinStrep-SUMO, N-terminal, cleaved | 5x
For B1, the Off binding rate ([1]; 0.4µM, + FtsN, replicate Exp.5) was 1.01E-01, the Off binding rate ([1]; 0.4µM, + FtsN, replicate Exp.6) was 2.02E-01 and the Off binding rate ([1]; 0.4µM, + FtsZ, Mean, n=8) was 0.1794. The Off binding rate ([1]; 0.4µM, + FtsZ, replicate Exp.1) was 1.34E-01, the Off binding rate ([1]; 0.4µM, + FtsZ, replicate Exp.2) was 2.29E-01 and the Off binding rate ([1]; 0.4µM, + FtsZ, replicate Exp.3) was 1.49E-01. It also gave an Off binding rate ([1]; 0.4µM, + FtsZ, replicate Exp.4) of 2.39E-01, an Off binding rate ([1]; 0.4µM, + FtsZ, replicate Exp.5) of 1.49E-01 and an Off binding rate ([1]; 0.4µM, + FtsZ, replicate Exp.6) of 1.15E-01. The Off binding rate ([1]; 0.4µM, + FtsZ, replicate Exp.7) was 3.30E-01, the Off binding rate ([1]; 0.4µM, + FtsZ, replicate Exp.8) was 8.97E-02 and the “Off binding rate, mean” value ([1]; 0.8 µM FtsA + FtsN&Z) was 0.0945 s. For the same molecule, the “Off binding rate, mean” value ([1]; 0.8 µM FtsA + FtsN) was 0.188 s, the “Off binding rate, mean” value ([1]; 0.8 µM FtsA + FtsZ) was 0.161 s and the Off binding rate ([1]; 0.8µM FtsA alone, Mean, n=8) was 0.3865. For the same molecule, the “Off binding rate, mean” value ([1]; 0.8 µM FtsA alone) was 0.386 s, the Off binding rate ([1]; 0.8µM FtsA alone, replicate Exp.1) was 6.04E-01 and the Off binding rate ([1]; 0.8µM FtsA alone, replicate Exp.2) was 6.73E-01. The Off binding rate ([1]; 0.8µM FtsA alone, replicate Exp.3) was 7.27E-01, the Off binding rate ([1]; 0.8µM FtsA alone, replicate Exp.4) was 1.48E-01 and the Off binding rate ([1]; 0.8µM FtsA alone, replicate Exp.5) was 5.66E-01. The Off binding rate ([1]; 0.8µM FtsA alone, replicate Exp.6) was 9.49E-02, the Off binding rate ([1]; 0.8µM FtsA alone, replicate Exp.7) was 1.46E-01 and the Off binding rate ([1]; 0.8µM FtsA alone, replicate Exp.8) was 1.33E-01. It also gave an Off binding rate ([1]; 0.8µM, + FtsN&Z, Mean, n=4) of 0.0945, an Off binding rate ([1]; 0.8µM, + FtsN&Z, replicate Exp.1) of 3.85E-02 and an Off binding rate ([1]; 0.8µM, + FtsN&Z, replicate Exp.2) of 2.22E-01. For the same molecule, the Off binding rate ([1]; 0.8µM, + FtsN&Z, replicate Exp.3) was 6.03E-02, the Off binding rate ([1]; 0.8µM, + FtsN&Z, replicate Exp.4) was 5.77E-02 and the Off binding rate ([1]; 0.8µM, + FtsN, Mean, n=3) was 0.1881. It also gave an Off binding rate ([1]; 0.8µM, + FtsN, replicate Exp.1) of 7.35E-02, an Off binding rate ([1]; 0.8µM, + FtsN, replicate Exp.2) of 3.72E-01 and an Off binding rate ([1]; 0.8µM, + FtsN, replicate Exp.3) of 1.19E-01. The Off binding rate ([1]; 0.8µM, + FtsZ, Mean, n=8) was 0.1609, the Off binding rate ([1]; 0.8µM, + FtsZ, replicate Exp.1) was 2.88E-01 and the Off binding rate ([1]; 0.8µM, + FtsZ, replicate Exp.2) was 1.14E-01. For the same molecule, the Off binding rate ([1]; 0.8µM, + FtsZ, replicate Exp.3) was 2.71E-01, the Off binding rate ([1]; 0.8µM, + FtsZ, replicate Exp.4) was 1.12E-01 and the Off binding rate ([1]; 0.8µM, + FtsZ, replicate Exp.5) was 1.44E-01. It also gave an Off binding rate ([1]; 0.8µM, + FtsZ, replicate Exp.6) of 1.39E-01, an Off binding rate ([1]; 0.8µM, + FtsZ, replicate Exp.7) of 1.37E-01 and an Off binding rate ([1]; 0.8µM, + FtsZ, replicate Exp.8) of 8.23E-02. It also gave an Off binding rate ([1]; Fig. S3i/S3j, 0.10 µM FtsA, summary value) of 0.326 s⁻¹, an Off binding rate ([1]; Fig. S3i/S3j, 0.20 µM FtsA, summary value) of 0.251 s⁻¹ and an Off binding rate ([1]; Fig. S3i/S3j, 0.40 µM FtsA, summary value) of 0.374 s⁻¹. For the same molecule, the Off binding rate ([1]; Fig. S3i/S3j, 0.80 µM FtsA, summary value) was 0.386 s⁻¹, the membrane off-rate ([1]; in the presence of FtsZ) was “around 0.20 s^−1” and the PCC (FtsZ [2]; [4]) was 0.65. The “PCC, Mean” value (FtsZ [2]; 0.60% Tris NTA, n = 2 (WT), 3 (R286W), sd 0.07, 0.08, p-value 0.39) was 0.56, the PCC (FtsZ [2]; [5]) was 0.79 and the PCC (FtsZ [2]; [6]) was 0.63. For the same molecule, the PCC (FtsZ [2]; [7]) was 0.69, the “PCC, Mean” value (FtsZ [2]; 0.80% Tris NTA, n = 3, 3, sd 0.0141 (WT), 0.0648 (R286W), p-value 0.61) was 0.70 and the PCC (FtsZ [2]; [8]) was 0.78. For the same molecule, the PCC (FtsZ [2]; [9]) was 0.71, the PCC (FtsZ [2]; [10]) was 0.72 and the “PCC, Mean” value (FtsZ [2]; 1.00% Tris NTA, n = 4 (WT), 3 (R286W), sd 0.08, 0.0316, p-value 6.25E-02) was 0.73. It also gave a PCC (FtsZ [2]; [11]) of 0.63, a PCC (FtsZ [2]; [12]) of 0.53 and a PCC (FtsZ [2]; [13]) of 0.55. For the same molecule, the “PCC, Mean” value (FtsZ [2]; 2.00% Tris NTA, n = 3, 3, sd 0.0143 (WT), 0.04 (R286W), p-value 1.59E-04) was 0.57, the PCC (FtsZ [2]; [14]) was 0.60 and the PCC (FtsZ [2]; […] Tris NTA, Exp. 2 (statistical analysis)) was 0.62. The PCC (FtsZ [2]; [15]) was 0.65, the “PCC, Mean” value (FtsZ [2]; […] Tris NTA, n = 3, 3, sd 0.06 (WT), 0.02 (R286W), p-value 3.86E-04) was 0.63 and the “Differential PCC” value (FtsZ [3]; 0.60% Tris NTA, Exp. 1 (statistical analysis)) was 0.40. The “Differential PCC” value (FtsZ [3]; [4]) was 0.46, the “Differential PCC” value (FtsZ [3]; 0.60% Tris NTA, Exp. 3 (statistical analysis)) was 0.54 and the “Differential PCC, Mean” value (FtsZ [3]; 0.60% Tris NTA, n = 2 (WT), 3 (R286W), sd 0.02, 0.057, p-value 0.67) was 0.47. The “Differential PCC” value (FtsZ [3]; [5]) was 0.57, the “Differential PCC” value (FtsZ [3]; [6]) was 0.48 and the “Differential PCC” value (FtsZ [3]; [7]) was 0.66. For the same molecule, the “Differential PCC, Mean” value (FtsZ [3]; 0.80% Tris NTA, n = 3, 3, sd 0.05 (WT), 0.0749 (R286W), p-value 0.13) was 0.57, the “Differential PCC” value (FtsZ [3]; [8]) was 0.60 and the “Differential PCC” value (FtsZ [3]; [9]) was 0.56. For the same molecule, the “Differential PCC” value (FtsZ [3]; [10]) was 0.51, the “Differential PCC, Mean” value (FtsZ [3]; 1.00% Tris NTA, n = 3, 3, sd 0.12 (WT), 0.0377 (R286W), p-value 5.89E-02) was 0.56 and the “Differential PCC” value (FtsZ [3]; [11]) was 0.44. The “Differential PCC” value (FtsZ [3]; [12]) was 0.34, the “Differential PCC” value (FtsZ [3]; [13]) was 0.36 and the “Differential PCC, Mean” value (FtsZ [3]; 2.00% Tris NTA, n = 3, 3, sd 0.0469 (WT), 0.04 (R286W), p-value 2.27E-03) was 0.38. The “Differential PCC” value (FtsZ [3]; [14]) was 0.34, the “Differential PCC” value (FtsZ [3]; [15]) was 0.37 and the “Differential PCC, Mean” value (FtsZ [3]; […] Tris NTA, n = 3, 3, sd 0.0371 (WT), 0.02 (R286W), p-value 5.70E-04) was 0.36.
